Experimental data: article PMC5743061

How the values were obtained:
[1] = target: CHC17 clathrin heavy chain (human (endogenous in HeLa)) (UniProt Q00610)
[2] = target: CHC22 clathrin heavy chain (human (endogenous in HeLa)) (UniProt P53675)
CHC22Δx9 (human) = CHC22Δx9 (human) (UniProt P53675); assay: deep-etch electron microscopy; purified CHC isoforms adsorbed on mica flakes, quick-frozen, freeze-fractured, deep-etched, platinum-replicated; CHC22Δx9 released in high Tris buffer pH 7.0, CHC17 released in HEPES buffer pH 7.0
[3] = target: T1, CHC17 clathrin heavy chain (human (endogenous in HeLa)), Q00610; assay: as above; conditions: remark: other sources report otherwise
T1 chain: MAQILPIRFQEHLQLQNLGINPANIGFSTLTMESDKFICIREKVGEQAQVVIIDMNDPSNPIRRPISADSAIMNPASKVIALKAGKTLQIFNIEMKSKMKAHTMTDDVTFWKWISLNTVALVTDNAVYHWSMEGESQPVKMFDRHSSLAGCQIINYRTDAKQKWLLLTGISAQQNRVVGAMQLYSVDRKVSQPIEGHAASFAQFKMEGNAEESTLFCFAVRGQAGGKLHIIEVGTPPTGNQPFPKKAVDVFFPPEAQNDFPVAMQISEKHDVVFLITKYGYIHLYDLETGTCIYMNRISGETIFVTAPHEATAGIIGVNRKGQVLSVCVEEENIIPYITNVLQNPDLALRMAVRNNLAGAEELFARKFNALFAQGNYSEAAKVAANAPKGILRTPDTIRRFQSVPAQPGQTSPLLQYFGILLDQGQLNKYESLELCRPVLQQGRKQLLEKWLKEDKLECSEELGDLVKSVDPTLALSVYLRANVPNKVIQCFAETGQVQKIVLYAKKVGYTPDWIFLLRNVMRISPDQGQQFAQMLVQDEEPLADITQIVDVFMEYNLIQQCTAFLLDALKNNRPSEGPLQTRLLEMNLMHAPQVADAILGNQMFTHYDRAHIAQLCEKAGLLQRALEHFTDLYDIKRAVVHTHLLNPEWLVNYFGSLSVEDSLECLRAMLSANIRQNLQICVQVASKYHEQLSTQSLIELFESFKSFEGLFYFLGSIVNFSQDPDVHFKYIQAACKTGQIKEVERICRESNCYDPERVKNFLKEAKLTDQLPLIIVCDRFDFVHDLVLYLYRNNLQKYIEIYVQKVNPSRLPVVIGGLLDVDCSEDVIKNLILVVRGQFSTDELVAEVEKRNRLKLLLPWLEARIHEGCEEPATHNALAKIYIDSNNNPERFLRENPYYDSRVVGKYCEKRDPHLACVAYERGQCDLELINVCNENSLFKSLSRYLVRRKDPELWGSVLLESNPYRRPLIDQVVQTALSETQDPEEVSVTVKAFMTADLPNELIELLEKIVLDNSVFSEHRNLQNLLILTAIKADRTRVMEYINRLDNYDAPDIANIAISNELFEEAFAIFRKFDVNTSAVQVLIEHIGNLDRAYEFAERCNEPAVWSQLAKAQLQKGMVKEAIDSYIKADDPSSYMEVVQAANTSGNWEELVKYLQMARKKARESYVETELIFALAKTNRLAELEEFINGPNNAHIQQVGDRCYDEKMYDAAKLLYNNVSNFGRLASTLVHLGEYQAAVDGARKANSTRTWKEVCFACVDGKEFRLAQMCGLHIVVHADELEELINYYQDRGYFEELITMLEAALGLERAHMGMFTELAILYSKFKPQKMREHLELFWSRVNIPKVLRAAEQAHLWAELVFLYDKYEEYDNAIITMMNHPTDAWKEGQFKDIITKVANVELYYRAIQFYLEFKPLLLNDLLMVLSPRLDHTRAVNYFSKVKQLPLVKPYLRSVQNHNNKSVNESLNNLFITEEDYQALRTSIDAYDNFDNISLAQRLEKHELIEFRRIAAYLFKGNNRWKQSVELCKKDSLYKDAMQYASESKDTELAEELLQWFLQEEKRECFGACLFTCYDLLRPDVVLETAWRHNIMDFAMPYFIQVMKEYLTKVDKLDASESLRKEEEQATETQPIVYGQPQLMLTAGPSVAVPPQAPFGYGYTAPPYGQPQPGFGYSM

UniProt P53675, sequence (P53675 whole entry, canonical isoform): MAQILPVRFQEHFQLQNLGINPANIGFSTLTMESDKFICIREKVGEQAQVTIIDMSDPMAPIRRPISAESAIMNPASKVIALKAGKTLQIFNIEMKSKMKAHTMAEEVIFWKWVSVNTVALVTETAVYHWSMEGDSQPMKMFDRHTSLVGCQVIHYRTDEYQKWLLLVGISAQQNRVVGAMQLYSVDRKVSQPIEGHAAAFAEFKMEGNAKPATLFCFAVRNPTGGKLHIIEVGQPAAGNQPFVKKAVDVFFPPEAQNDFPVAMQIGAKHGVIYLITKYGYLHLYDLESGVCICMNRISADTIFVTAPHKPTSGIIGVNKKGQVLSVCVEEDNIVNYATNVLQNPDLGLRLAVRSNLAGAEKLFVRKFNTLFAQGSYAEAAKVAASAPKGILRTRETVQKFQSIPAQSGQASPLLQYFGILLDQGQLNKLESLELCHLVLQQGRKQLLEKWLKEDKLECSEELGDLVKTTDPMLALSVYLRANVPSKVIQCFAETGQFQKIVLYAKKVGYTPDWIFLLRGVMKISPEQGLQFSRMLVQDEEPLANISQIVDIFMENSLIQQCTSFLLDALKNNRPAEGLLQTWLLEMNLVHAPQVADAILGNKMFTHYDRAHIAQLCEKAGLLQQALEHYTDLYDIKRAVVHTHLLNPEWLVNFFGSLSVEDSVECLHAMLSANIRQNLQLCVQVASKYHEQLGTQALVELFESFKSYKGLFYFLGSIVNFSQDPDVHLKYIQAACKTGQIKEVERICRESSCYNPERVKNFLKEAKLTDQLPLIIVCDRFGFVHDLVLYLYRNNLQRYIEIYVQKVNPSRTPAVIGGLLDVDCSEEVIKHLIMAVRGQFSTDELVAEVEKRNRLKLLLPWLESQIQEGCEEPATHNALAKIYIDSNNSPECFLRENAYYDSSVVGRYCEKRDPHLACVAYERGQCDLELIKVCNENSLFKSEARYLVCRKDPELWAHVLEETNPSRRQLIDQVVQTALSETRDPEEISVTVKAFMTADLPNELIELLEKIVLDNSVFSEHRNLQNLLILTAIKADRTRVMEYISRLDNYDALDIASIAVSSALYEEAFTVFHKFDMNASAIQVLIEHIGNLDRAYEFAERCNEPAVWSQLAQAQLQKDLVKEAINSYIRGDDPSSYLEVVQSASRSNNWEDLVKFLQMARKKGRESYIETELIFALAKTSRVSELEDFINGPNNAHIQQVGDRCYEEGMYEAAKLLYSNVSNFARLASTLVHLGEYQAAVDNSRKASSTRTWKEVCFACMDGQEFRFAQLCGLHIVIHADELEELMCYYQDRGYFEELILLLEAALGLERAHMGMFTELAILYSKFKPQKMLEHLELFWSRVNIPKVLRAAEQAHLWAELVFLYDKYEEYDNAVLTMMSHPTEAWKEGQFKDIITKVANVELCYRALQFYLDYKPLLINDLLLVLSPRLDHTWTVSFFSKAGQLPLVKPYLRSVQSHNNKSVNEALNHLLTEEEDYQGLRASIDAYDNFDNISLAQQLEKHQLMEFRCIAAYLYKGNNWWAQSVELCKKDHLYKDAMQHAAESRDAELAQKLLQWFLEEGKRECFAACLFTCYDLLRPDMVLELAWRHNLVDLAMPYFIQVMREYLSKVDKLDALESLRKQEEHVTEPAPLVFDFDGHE

## 70-kDa heat-shock cognate protein (Hsc70) (from UniProt P63018 1-646) (enzyme)
[1]
  release of CHC from HeLa CCVs into the supernatant, S/(S+P) by immunoblot, with uncoating complex (Hsc70 1.3 μM + GST-auxilin(401–910) 0.13 μM) plus ATP 0.5 mM, 10 min, 37 °C: > 50%
[2]
  release of CHC from HeLa CCVs into the supernatant, S/(S+P) by immunoblot, with uncoating complex (Hsc70 1.3 μM + GST-auxilin(401–910) 0.13 μM) plus ATP 0.5 mM, 10 min, 37 °C: 16%

## CHC22Δx9 (from UniProt P53675 1-1640) (natural protein)
CHC22Δx9 (human)
  stoichiometry N: 3

B1: CHC17 clathrin heavy chain, Q00610 1-1675 (natural protein)
chain: MAQILPIRFQEHLQLQNLGINPANIGFSTLTMESDKFICIREKVGEQAQVVIIDMNDPSNPIRRPISADSAIMNPASKVIALKAGKTLQIFNIEMKSKMKAHTMTDDVTFWKWISLNTVALVTDNAVYHWSMEGESQPVKMFDRHSSLAGCQIINYRTDAKQKWLLLTGISAQQNRVVGAMQLYSVDRKVSQPIEGHAASFAQFKMEGNAEESTLFCFAVRGQAGGKLHIIEVGTPPTGNQPFPKKAVDVFFPPEAQNDFPVAMQISEKHDVVFLITKYGYIHLYDLETGTCIYMNRISGETIFVTAPHEATAGIIGVNRKGQVLSVCVEEENIIPYITNVLQNPDLALRMAVRNNLAGAEELFARKFNALFAQGNYSEAAKVAANAPKGILRTPDTIRRFQSVPAQPGQTSPLLQYFGILLDQGQLNKYESLELCRPVLQQGRKQLLEKWLKEDKLECSEELGDLVKSVDPTLALSVYLRANVPNKVIQCFAETGQVQKIVLYAKKVGYTPDWIFLLRNVMRISPDQGQQFAQMLVQDEEPLADITQIVDVFMEYNLIQQCTAFLLDALKNNRPSEGPLQTRLLEMNLMHAPQVADAILGNQMFTHYDRAHIAQLCEKAGLLQRALEHFTDLYDIKRAVVHTHLLNPEWLVNYFGSLSVEDSLECLRAMLSANIRQNLQICVQVASKYHEQLSTQSLIELFESFKSFEGLFYFLGSIVNFSQDPDVHFKYIQAACKTGQIKEVERICRESNCYDPERVKNFLKEAKLTDQLPLIIVCDRFDFVHDLVLYLYRNNLQKYIEIYVQKVNPSRLPVVIGGLLDVDCSEDVIKNLILVVRGQFSTDELVAEVEKRNRLKLLLPWLEARIHEGCEEPATHNALAKIYIDSNNNPERFLRENPYYDSRVVGKYCEKRDPHLACVAYERGQCDLELINVCNENSLFKSLSRYLVRRKDPELWGSVLLESNPYRRPLIDQVVQTALSETQDPEEVSVTVKAFMTADLPNELIELLEKIVLDNSVFSEHRNLQNLLILTAIKADRTRVMEYINRLDNYDAPDIANIAISNELFEEAFAIFRKFDVNTSAVQVLIEHIGNLDRAYEFAERCNEPAVWSQLAKAQLQKGMVKEAIDSYIKADDPSSYMEVVQAANTSGNWEELVKYLQMARKKARESYVETELIFALAKTNRLAELEEFINGPNNAHIQQVGDRCYDEKMYDAAKLLYNNVSNFGRLASTLVHLGEYQAAVDGARKANSTRTWKEVCFACVDGKEFRLAQMCGLHIVVHADELEELINYYQDRGYFEELITMLEAALGLERAHMGMFTELAILYSKFKPQKMREHLELFWSRVNIPKVLRAAEQAHLWAELVFLYDKYEEYDNAIITMMNHPTDAWKEGQFKDIITKVANVELYYRAIQFYLEFKPLLLNDLLMVLSPRLDHTRAVNYFSKVKQLPLVKPYLRSVQNHNNKSVNESLNNLFITEEDYQALRTSIDAYDNFDNISLAQRLEKHELIEFRRIAAYLFKGNNRWKQSVELCKKDSLYKDAMQYASESKDTELAEELLQWFLQEEKRECFGACLFTCYDLLRPDVVLETAWRHNIMDFAMPYFIQVMKEYLTKVDKLDASESLRKEEEQATETQPIVYGQPQLMLTAGPSVAVPPQAPFGYGYTAPPYGQPQPGFGYSM
[3]
  stoichiometry N: 3
